1 molecule from patent publication US6395548, “Methods of modulating of angiogenesis” (President and Fellows of Harvard College) can be followed below.

In one series the target is HIF-1alpha/ARNT4 (Homo sapiens, UniProt Q16665;Q8WYA1-5 Q16665:1-826,Q8WYA1-5:1-602). The series is described as follows: EMSA; HIF-1 did not form dimers with ARNT4 and bind the site. In general terms: In EMSA bound probe runs differently from free probe, usually more slowly.
In a further series the target is EPAS1/ARNT4 heterodimer (Homo sapiens, UniProt Q99814;Q8WYA1-5 Q99814:1-870,Q8WYA1-5:1-602). The series is described as follows: EMSA; probe described as HIF-1 site / hypoxia responsive element of VEGF.
EPAS1/ARNT4 heterodimer, sequence (Q99814 whole entry, chain 1 of 2): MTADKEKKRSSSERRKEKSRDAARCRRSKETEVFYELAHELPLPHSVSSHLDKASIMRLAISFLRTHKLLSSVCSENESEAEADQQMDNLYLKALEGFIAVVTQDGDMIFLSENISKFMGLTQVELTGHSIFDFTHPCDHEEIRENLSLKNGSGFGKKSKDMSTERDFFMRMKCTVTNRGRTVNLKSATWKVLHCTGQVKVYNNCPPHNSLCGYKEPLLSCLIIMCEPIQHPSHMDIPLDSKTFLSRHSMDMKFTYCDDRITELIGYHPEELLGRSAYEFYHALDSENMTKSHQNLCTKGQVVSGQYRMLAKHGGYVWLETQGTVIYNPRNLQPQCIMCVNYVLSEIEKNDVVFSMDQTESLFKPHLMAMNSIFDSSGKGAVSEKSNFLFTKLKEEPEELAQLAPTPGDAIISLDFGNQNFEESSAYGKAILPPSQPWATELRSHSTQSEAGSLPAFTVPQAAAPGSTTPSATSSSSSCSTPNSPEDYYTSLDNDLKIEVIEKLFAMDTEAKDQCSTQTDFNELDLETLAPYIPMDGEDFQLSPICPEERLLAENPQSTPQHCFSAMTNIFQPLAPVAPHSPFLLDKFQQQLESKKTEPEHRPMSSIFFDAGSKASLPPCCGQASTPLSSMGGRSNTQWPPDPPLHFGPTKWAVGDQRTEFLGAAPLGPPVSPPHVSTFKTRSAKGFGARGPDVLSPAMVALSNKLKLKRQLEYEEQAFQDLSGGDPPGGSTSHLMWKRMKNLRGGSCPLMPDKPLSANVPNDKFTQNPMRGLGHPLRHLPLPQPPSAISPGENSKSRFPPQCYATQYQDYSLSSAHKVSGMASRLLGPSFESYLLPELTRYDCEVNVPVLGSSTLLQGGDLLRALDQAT
EPAS1/ARNT4 heterodimer, sequence (Q8WYA1 other isoform, or with tags, fused parts or gaps, chain 2 of 2): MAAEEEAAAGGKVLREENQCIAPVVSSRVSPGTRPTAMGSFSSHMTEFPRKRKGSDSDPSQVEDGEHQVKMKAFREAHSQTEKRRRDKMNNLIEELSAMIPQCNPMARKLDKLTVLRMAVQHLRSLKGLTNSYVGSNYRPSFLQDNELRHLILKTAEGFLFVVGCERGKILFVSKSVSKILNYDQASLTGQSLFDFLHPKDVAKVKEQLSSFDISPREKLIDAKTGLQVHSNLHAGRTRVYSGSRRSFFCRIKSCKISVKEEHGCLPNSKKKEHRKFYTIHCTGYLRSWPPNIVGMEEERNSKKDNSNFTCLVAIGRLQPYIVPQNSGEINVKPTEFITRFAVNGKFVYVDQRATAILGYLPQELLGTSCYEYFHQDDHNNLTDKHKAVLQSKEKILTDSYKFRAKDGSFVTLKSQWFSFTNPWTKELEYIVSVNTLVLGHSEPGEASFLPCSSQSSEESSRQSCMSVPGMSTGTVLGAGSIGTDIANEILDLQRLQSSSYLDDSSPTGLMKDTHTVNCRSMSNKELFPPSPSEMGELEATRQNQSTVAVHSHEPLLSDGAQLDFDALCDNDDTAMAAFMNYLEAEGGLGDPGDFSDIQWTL

HIF-1alpha/ARNT4, sequence (Q16665 whole entry, chain 1 of 2): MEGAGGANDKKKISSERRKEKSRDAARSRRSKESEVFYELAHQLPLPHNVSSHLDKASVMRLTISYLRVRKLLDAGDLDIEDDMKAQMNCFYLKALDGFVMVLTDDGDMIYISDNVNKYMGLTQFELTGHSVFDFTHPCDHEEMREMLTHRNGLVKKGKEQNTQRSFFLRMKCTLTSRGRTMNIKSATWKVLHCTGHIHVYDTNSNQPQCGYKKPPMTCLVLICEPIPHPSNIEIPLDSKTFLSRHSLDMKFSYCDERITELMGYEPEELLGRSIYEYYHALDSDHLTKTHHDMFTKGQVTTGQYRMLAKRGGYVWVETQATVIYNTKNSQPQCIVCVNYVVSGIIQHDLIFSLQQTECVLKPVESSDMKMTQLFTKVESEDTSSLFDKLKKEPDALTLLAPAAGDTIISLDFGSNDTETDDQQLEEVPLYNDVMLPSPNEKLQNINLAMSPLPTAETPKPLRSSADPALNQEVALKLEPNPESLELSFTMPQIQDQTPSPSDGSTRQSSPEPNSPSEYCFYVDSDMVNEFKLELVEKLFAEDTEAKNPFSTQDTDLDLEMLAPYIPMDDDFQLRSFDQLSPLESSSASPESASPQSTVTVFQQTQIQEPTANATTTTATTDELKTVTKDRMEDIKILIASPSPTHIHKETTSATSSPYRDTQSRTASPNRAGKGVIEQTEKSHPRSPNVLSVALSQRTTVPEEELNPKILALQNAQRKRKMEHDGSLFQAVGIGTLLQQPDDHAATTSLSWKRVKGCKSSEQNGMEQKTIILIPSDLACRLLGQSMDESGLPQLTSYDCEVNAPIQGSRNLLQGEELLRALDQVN
HIF-1alpha/ARNT4, sequence (Q8WYA1 other isoform, or with tags, fused parts or gaps, chain 2 of 2): as the sequence (Q8WYA1 other isoform, or with tags, fused parts or gaps, chain 2 of 2) above

B1: VEGF promoter HIF-1 binding site / hypoxia responsive element (dsDNA)
DNA 1: GCCCTACGTGCTGTCTCA
DNA 2: TGAGACAGCACGTAGGGC
Turning to B1, the values for the binding result with HIF-1alpha/ARNT4 and with EPAS1/ARNT4 heterodimer were “no binding” and “binds”, respectively.
